The text below walks through data of patent publication US20240043563A1.

For assay [1], the target named is cynomolgus monkey MASP-2 of cynomolgus monkey serum (cynomolgus monkey). Put plainly: cell-based or functional assay.
Assay [2] addresses Fc-hMASP-2A-CCS (human) [IgG part: P01857]. Kind of assay: ELISA according to Example 5, plate coated with Fc-hMASP-2A-CCS. (In general: In an ELISA, binding on a coated surface is turned into a signal by an enzyme label.)

Sequence of Fc-hMASP-2A-CCS (human) [IgG part: P01857] (P01857 other isoform, or with tags, fused parts or gaps limits assumed, form in doubt): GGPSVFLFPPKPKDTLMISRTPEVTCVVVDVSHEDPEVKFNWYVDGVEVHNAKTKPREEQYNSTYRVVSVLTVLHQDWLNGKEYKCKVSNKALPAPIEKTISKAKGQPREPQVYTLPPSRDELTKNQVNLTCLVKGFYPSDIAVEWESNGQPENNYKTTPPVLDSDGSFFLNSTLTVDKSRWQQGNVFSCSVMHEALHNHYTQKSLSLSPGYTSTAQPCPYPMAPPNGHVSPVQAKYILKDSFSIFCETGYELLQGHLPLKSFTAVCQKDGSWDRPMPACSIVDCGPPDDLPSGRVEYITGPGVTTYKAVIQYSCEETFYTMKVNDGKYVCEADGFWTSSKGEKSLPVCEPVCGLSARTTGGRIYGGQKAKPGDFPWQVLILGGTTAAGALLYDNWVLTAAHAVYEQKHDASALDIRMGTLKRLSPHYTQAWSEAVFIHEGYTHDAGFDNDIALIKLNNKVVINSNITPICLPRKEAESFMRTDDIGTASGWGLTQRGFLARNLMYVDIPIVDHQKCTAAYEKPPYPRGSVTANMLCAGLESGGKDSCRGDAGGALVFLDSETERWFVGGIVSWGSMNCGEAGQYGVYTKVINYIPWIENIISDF

The term EC50 denotes the midpoint of the concentration-response curve. In assay [1], Narsoplimab (antibody) registered an IC50 of inhibition of MASP-2-catalyzed C4 cleavage in 90% cynomolgus monkey serum of 94 nM. Also, the EC50 in assay [2] was 0.227 nM.
